Four molecules from paper PMC9418295, “Characterization of proteins from the 3N5M family reveals an operationally stable amine transaminase” (Applied Microbiology and Biotechnology, 2022) can be followed below.

The term stoichiometry N denotes a count of units in the complex or per binding partner.

What all share (experiment): native gel or EMSA + SEC; native PAGE without SDS (7.5% separating gel, running buffer 0.05 M Tris, 0.038 M glycine, pH 8.3) against the standards TA-3HMU and TA-3FCR (dimers), catalase and TA-3N5M (tetramers); SEC on HiPrep 16/60 Sephacryl S-100 HR in 50 mM sodium phosphate pH 8.0; subunit size by SDS-PAGE
Series [1] deals with TA-5, putative transaminase from Halomonas elongata (Halomonas elongata).
Series [2] deals with TA-9, putative transaminase from Burkholderia cepacia (Burkholderia cepacia).
Series [3] has as its target TA-10, amine transaminase from Burkholderia multivorans (Burkholderia multivorans).
Series [4] concerns the molecule itself.

In the case of “TA-5, putative transaminase from Halomonas elongata (enzyme)”, the stoichiometry N in series [1] was 4. For the molecule “TA-9, putative transaminase from Burkholderia cepacia (enzyme)”, in series [2], the stoichiometry N worked out at 4.

With “TA-10, amine transaminase from Burkholderia multivorans (enzyme)”, in series [3], the stoichiometry N worked out at 4.

B1: TA-1, taurine transaminase from Bilophila wadsworthia (enzyme, UniProt Q9APM5 1-456, looked up)
chain: MTYDKAELVALDKKYVWHHLTQHKNFEPAIYVKGEGMRITDIDGKTYLDAVSGGVWTVNVGYGRKEIVDAVAKQMMEMCYFANGIGNVPTIKFSEKLISKMPGMSRVYLSNSGSEANEKAFKIVRQIGQLKHGGKKTGILYRARDYHGTTIGTLSACGQFERKVQYGPFAPGFYEFPDCDVYRSKFGDCADLGVKMAKQLEEVILTVGPDELGAVIVEPMTAGGGILVPPAGYYETIREICDKYELLLIIDEVVCGLGRTGKWFGYQHFNVQPDIVTMAKGVASGYAPISCTVTTEKVFQDFVNDPADTDAYFRDISTFGGCTSGPAAALANIEIIERENLLENCTKMGDRLLEGLKGLMAKHPIIGDVRGKGLFAGIEIVKDRATKEPIAEAVANAMVGAAKQAGVLIGKTSRSFREFNNTLTLCPALIATEADIDEIVAGIDKAFTTVEQKFGL
notes: TA-1, taurine-pyruvate transaminase, Bilophila wadsworthia; codon-optimized gene subcloned with NdeI and BamHI into pET22b or pET28b; Purified and stored with PLP as cofactor; also called taurine-pyruvate transaminase; source: E. coli BL21, purified (Ni-NTA, desalting)
Consider B1, for which the “stoichiometry N” value in series [4] was 4.
